In patent US20210388097A1 (SORRENTO THERAPEUTICS, published 2021):

Experiments:
[1] = biological target: T1, his-tagged human BCMA protein (ACROBiosystems, catalog # BCA-H522y-100 ug) (human, UniProt Q02223 1-54); assay: SPR (Biacore T200), antibody captured on anti-human Fc chip, his-tagged human BCMA as analyte
T1 construct: limits of the bought construct are not otherwise stated; also called recombinant his-tagged human BCMA; not shown: his tag of the bought protein
T1 sequence: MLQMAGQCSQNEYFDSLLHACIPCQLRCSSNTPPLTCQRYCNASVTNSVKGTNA
Method: (§1) Binding kinetics of anti-BCMA antibodies with his-tagged human BCMA protein (ACROBiosystems, catalog # BCA-H522y-100 ug, UniProt Q02223-1, SEQ ID NO:92) was measured using surface plasmon resonance (SPR). Kinetic interactions between the antibodies and his-tagged BCMA proteins were measured at 25° C. using Biacore T200 surface plasmon resonance (GE Healthcare). Anti-human fragment crystallizable region (Fc region) antibody was immobilized on a CM5 sensor chip to approximately 8000 resonance units (RU) using standard N-hydroxysuccinimide/N-Ethyl-N′-(3-dimethylaminopropyl) carbodiimide hydrochloride (NHS/EDC) coupling methodology. The anti-BCMA antibody (2 μg/mL) was captured for 60 seconds at a flow rate of 10 μL/minute. The his-tagged BCMA protein was run at […] different dilutions of 3.12, 6.25, 12.5, 25, 50, 100 and 200 nM, in a running buffer of 0.01 M HEPES pH 7.4, 0.15 M NaCl, 3 mM EDTA, 0.05% v/v Surfactant P20 (HBS-EP+). The 25 nM BCMA protein run was measured two times. All measurements were conducted in HBS-EP+ buffer with a flow rate of 30 μL/minute. A 1:1 (Langmuir) binding model was used to fit the data. […]
(§2) Cross reactivity of two of the anti-BCMA antibodies, BCA7-2C5 and BCA7-2E1, with his-tagged human, cynomolgus or mouse BCMA protein were analyzed by SPR in the manner as described above. […]

[2] = biological target: T2, his-tagged mouse BCMA protein (ACROBiosystems, catalog # BCA-M52H3) (mouse, UniProt O88472 1-49); assay: SPR (Biacore T200), antibody captured on anti-human Fc chip, his-tagged mouse BCMA as analyte
T2 construct: Bought protein; not shown: his tag
T2 chain (looked up): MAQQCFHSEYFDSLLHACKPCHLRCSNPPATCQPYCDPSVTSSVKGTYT
Method: as §1, §2

BCMA on MM1R cells = biological target: T3, BCMA on MM1R cells (human, UniProt Q02223); assay: flow cytometry on MM1R cells, 5x serial dilution, FITC goat anti-human IgG F(ab')2, GeoMean BL1-H
T3 construct: full length, on the surface of MM1R multiple myeloma cells; also called MM1R multiple myeloma cell line
T3 sequence (receptor, looked up): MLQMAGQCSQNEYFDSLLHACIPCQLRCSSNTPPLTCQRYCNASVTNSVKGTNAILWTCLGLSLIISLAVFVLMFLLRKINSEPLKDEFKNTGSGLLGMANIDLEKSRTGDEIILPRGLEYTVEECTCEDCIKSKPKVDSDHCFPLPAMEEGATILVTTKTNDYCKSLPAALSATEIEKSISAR
From the text: Flow cytometry was used to test antibody binding to multiple myeloma cell line MM1R, using various anti-BCMA antibodies (5× serial dilution) and 80,000 cells per well. The secondary antibody was FITC AffiniPure FAB2 fragment goat anti-human IgG (H+L) (from Jackson Immuno Research). […] A BL-1 detector (IntelliCyt iQue Screener Plus) which detects at 530 nm was used. The geometric mean is reported.

[3] = biological target: T4, human BAFFR/TNFRSF13C (CD268) Fc tag, from Sino Biological (human, UniProt Q96RJ3 1-71, limits assumed); assay: bio-layer interferometry, antibody coupled to AR2G sensor, BAFFR in solution
T4 construct: Bought protein; not shown: Fc tag
T4 sequence (looked up): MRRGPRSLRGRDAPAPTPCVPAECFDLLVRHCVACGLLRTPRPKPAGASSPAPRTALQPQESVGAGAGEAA
Method: Bio-layer interferometry was used to measure cross-binding between (1) two different anti-BCMA antibodies (BCA7-2C5 or BB C11D5) or a control isotype, and (2) various human antigens including TACI and BAFFR.
Immobilization of antibody was achieved through standard EDC-catalyzed amide bond formation to create a covalent bond between a reactive amine on the protein and the carboxy-terminated biosensor surface. Briefly, AR2G sensors (OctetRED96e from ForteBio) were activated by EDC-NHS for 6 minutes, then 5 ug/ml antibodies were loaded (BCA7-2C5 antibody, Bluebird C11D5 chimeric antibody, or a human IgG isotype antibody) in 10 mM acetate buffer pH 5.0 for 6 minutes, followed by quenching for 6 minutes with 1M ethanolamine pH 8.5. The 3 minutes baseline step removed any unbound antibody from the biosensor, followed by 1.5 minutes each for association of three analyte proteins TACI (human TACI/TNFRSF13B (CD267) His-tag, from Sino Biological, 1 ug/mL in PBS), BAFFR (human BAFFR/TNFRSF13C (CD268) Fc tag) from Sino Biological, 2 ug/mL in PBS), and human BCMA protein (in-house made with mouse Fc, 2 ug/mL in PBS).

B1: BCA7-2C5 antibody (antibody, V domains shown)
VH: EVQLVESGGGLVKPGGSLRLSCAASGFTSSTAWMSWVRQAPGKGLEWVGRIKSKSDGGTTDYAAPVKGRFTISRDDSKNTLFLQMNSLKTEDTAVYYCAKGGGTYGYWGQGTTVTVSS
VL: QSALTQPASVSGSPGQSVTISCTGTSSAHGGHYYVSWYQQHPGKAPKLMIYDVSNRPSGVSNRFSGSKSGNTASLTISGLQAEDEADYYCGSYTSSGSYVFGTGTKLTVL
Which results are given for B1?
Kd [1]: 19.4 nM; Kd [2]: 880 nM; EC50 (read off the curve) (BCMA on MM1R cells): ~0.08 µg/mL; binding result [3]: no binding (tested: 2 ug/mL)
